Assay: label from the status in PepcDB records

In the case of “MIRNLYNKIKNCKLKIAAIILLIFLIVTGYIYYSRYFYVLRSPQRVKEFILSYGKFGFFAFFVMQMLQVVAFFIPGEIIQIAGGYIFGTFWGTVISLLGITAGSAVAFYLSNKLGRPFVKKISGKQNISFFEKLIKNGEIKYVITLIYLVPGLPKDILAYVCGITDLSLKDFIIYSTIGRFPGIFISAYFGNTITHGNIKMMVIIAVISVVLFGLGVFKGKYLLTKISSIRSKKQK”, the protein production is reported as “failed”.

With “MPQRNDRSRSTPTTSPKNNSWFRMQAGHQSDADIYIYDEIGFWGVTAKQFISDLNALGDITHINLNINSPGGDVFEGIAIFNALKTHGASITVYVDGVAASMASVIAMVGKPVIMPENSFMMIHKPFGFTGGDAEDMRTYADLLDKVEAVLLPAYAQKTGKTTDEIAAMLADETWMSGAECLAHGFADQVTPAVKAMACIQSKRTEEFKKMPESIRNMITPPRNSAPRVQDDGPAASRTPVQAAAPVVDENSIRAQVLAEQKARVNGINDLFAMFGGRYQTLQAQCLADPECSLEQAREKLLNEMGRESTPSNKNTPXHIYAGNGNFVGDGIRQALMARAGFEKTERDNVYNGMTLREYARMSLTERGIGVSSYNPMQMVGAAFTHSTSDFGNILLDVANKAILQGWEDAPETYEQWTRKGQLSDFKIAHRVGMGGFSALRQVREGAEYKYVTTGDKQATIALATYGELFSITRQAIINDDLNMLTDVPMKLGRAAKSTIADLVYAILTSNPKISTDNVSLFDKAKHANVLESAAMDVASLDKARQLMRVQKEGERHLNIRPAFVLVPTAMESVANQVIRSSSVKGADINAGIINPVKDFATVIAEPRLDDNSQTTFYLAASKGSDTIEVAYLNGVDTPYIDQMEGFSVDGVTTKVRIDAGVAPVDHRGLVKCTA” the protein production was “failed”.

For “MSQQFPDWQPQGLENNLLKLVPLAKADFDTLFEVASDPLIWEQHPTKDRYKKEVFQLFFDGALGGNTAFIIIDKATGRIIGSTRYYDYKPEQASIAIGYTFLNRDYWGGRYNRSAKKLLLDYAFHYVDTVYFHIGANNLRSQKAILNIGATKVGEVDFDYYGKKVLHYEYAITKADWLHTLKQQL”, the protein production was “failed”.

With “MVNEYKAHSSFILKVVITLIGYWIASILAIIIYSMFFKIETNTFLLCLLLPTPIIWFNILIGMGLTYRCMENLTIYDKHKLWCVFVRDLTLTILATILATLTTMELYQIEHPLKPIEFVFIVGLVLIVGFTIITTLIIKYLKIIKNLKKISKN” the protein production was “failed”.

With “MYKLSLVIKSLIIALLTTSLLSAGFQLRGDYLLDDDLQTLYVSSSDIHGELTRLVKLNLTRNQVNVLKHSKADVPELRILSDKLDRRTLSLFSNGQVAEYELIYSVHYQVRFTGEDARDFRFELYRDYQDDPNIALAKSRELSLLLSEMRTSAADKILRDLARIQRLEHHHHHH” the protein production was “failed”.

In the case of “MSSNPLRFFVLTIFPHIISCYSEYGIVKQAIKKGKVEVYPIDLREFAPKGQVDDVPYGGLPGMVLKPEPIYEAYDYVVENYGKPFVLITEPWGEKLNQKLVNELSKKERIMIICGRYEGVDERVKKIVDMEISLGDFILSGGEIVALAVIDAVSRVLPGVLSEPQSIQEDSFQNRWLGYPVYTRPREYRGMKVPEELLSGHHKLIELWKLWHRIENTVKKRPDLIPKDLTELEKDILNSILSGKSFKEWLKEHKHLL”, the protein production is reported as “not failed”.

For “MLALKSSELEGIATSLTAVAGALHESNTDRLQSWQQLETMTSASSLIQGFIKLVDYNRPTVNIVEQMHKTASTLFNTADFLRTLEGYVDVLEKQADKSITLTVMLRYIASLSSLLDLMCAREINALCTAITPEPLKHLGDFGTLPASAIHEFHLVNAPPEIRALAEAHPDMQILEAGDGSLVASFGDIDRATTVTTIVAGVGSSNPEGWNTYVDRARTVSASTGSATVLWLGYQAPASIPAAVSGAAANRAAADLQRFQAALQSRNPHQRKVVMGYSYGSTVVGKAASSGELSADALVLVGSPGAGVSHSSQLGAPVYAVTGSADPIGFAGTQYDGIHGTDPTAALFGATVWDSPSTHSGYWNDQEFLGNVAEVVRGK”, the protein production was “failed”.

In the case of “IGIWFTGTDGRYHFVNKTFCNLVGIEEEDMLNTPSSNLAELLGSEIAHNCLDSDRAALGQDLAHVSYETIPRLNAKPYLLEITKVKLKNTR”, the protein production is reported as “failed”.

In the case of “MMHHALHIKNGIVIDPKNGVKAEKMDIFVKNGKIVEESEVKGEDVKVIDANNKLVVAGGVDMHAHIAGSKINTGRTMRPEEMRVVRNIAGKFRAAVGRVLEHHHHHH”, the protein production is reported as “not failed”.

For “MGENYKFFNHKDCEFFPCHKTNKPEEFNCLFCYCPLYALGENCGGNFKYTDKGIKDCSSCILPHKKDNYNYIMSKFQDLVKITSKKLEHHHHHH”, the protein production was “failed”.

In the case of “MAAGPEPPEWEPRWRKALRGKENKGSVEIMRKDLNDARDLHGQAESAAAVWKGHVMDRRKKALTDYKKLRAFFVEEEEHFLQEAEKDEGASEDDELADPADRFRSLLQAVSELEKKHRNLGLSMLLQ”, the protein production is reported as “not failed”.

In the case of “MGESYSSGYSLVVRVIANDRSGLLRDITTILANEKVNVLGVASRSDTKQQLATIDMDIEIYNLQVLGRVLAKLNQLPDVIDARRQQGALEHHHHHH”, the protein production is reported as “not failed”.

In the case of “MNILLAMIPAFFWGTTYAVTQFTLPDWPPVLLGALRALPAGLLLLAIKPSLPKKHEWKVLLVLGTINIAFFFGLIFVMALTLPSAISGVGMISVPVFAMLFGWAVYKRQPSAIQGISGAVLIALAWFLFDPSSISLNPIGLGAMLAAIMCIVIGSSVTKSLGTKMHWWTVLTWQLILGGVLLSIAAAVLATINPQPYVHAVQNIDMTNTLGLLWVIVLNTALGYGMYVWLLQRMSVVDFTFGGIANPIAGIVSGLLLLGENFTPLQYSLMVGMIVMSLLPQILTSLRARKEAITV”, the protein production is reported as “failed”.

For “NVRVITDENWRELLEGDWMIEFYAPWCPACQNLQPEWESFAEWGEDLEVNIAKVDVTEQPGLSGRFIINALPTIYHCKDGEFRRYQGPRTKKDFINFISDKEWKSIEPVSSWF”, the protein production was “not failed”.

In the case of “MTAAPLVSVLLPVYNAGPYLAAALGSILRQDYGRLEVIAIDDGSSDNSLEILERYRQADSRVSIISRENRGLVATLNEGLAAAQGELVARMDADDVAYPWRLSRQVALFEQRPELGFCGAGVDMLIRGRIARGRPDPVFRFGRMPILAMFFTIFMHPTVVYNRKVIEDADLHYDPTYRHAEDFDLFGRLAARYPAAMMPENLLVYRVHQASVTSRHGKEMRRTHLRIVAENLEREGLAEATRDLRDIGEAVSFDTVTRAADFIVALEERIRSLPAETRPSFEAGALNLFYFLYQLVADERQPPLTHELLRRTAKWNAIRRREKYALRPGAWAPWLSLASLAAGKQADAVEYFFKSAPAAAVLASHQVG”, the protein production is reported as “failed”.

With “LIIFCLLSVVAAAAYFSFSHWAIRHETLTFFDESRGRPVAIDLAVRRDAEMKAEAGMVTLPVAVVSHGNTVKNTEYSFLANVLAARGYLVASIQHDLPDDKPLMTVAGSLYVGRLAVYERGEKNIFFALKELKKLEPNADYDHLTLVGHSNGGDISMFFAQQHPEMVRRVVTLD” the protein production was “failed”.

In the case of “MAKVTVILTSYNKPNTVGAAIESVLSQSFQDWELWIMDDASNEETQQVIDSYMLYPNVYYYNSQVKDEERHKSTRYATLINEAISRSTGDYLCYLTDDNYYLPERLQKMVQYLERYPSVDVVYSKQLVRTVDNQLITQAERIRPTKGTIRYAENIVDHCSVMHRRSLAEKVYETYGSYWNDDPICWHNGDAFFWNRLSAFALFYPINEVLDVCLKSPTSFQALNAFLPEYLPSGTLVKGLGADVYLIEDNHRRAITPTMFQQLHYREENVVHIPDPVLFKYKEGPAIDEHIWEQGKLFPNHRLIKASQEPHIYYVENHRKRHILTHKEFRLYKFRASEVVEVSRSFLDSIPTGPPISAHVNNQHPLPEGLLVRCGFKFYLSGNNRLYPIKSRVMKKLNLQMKNAVFLDSRAIGRYEQGETIEWKTNKCQPRFNTSSLEHHHHHH”, the protein production is reported as “failed”.

In the case of “MPQVETTSVFRADLLKEMESSTGTAPASTGAENLPAGSALLVVKRGPNAGARFLLDQPTTTAGRHPESDIFLDDVTVSRRHAEFRINEGEFEVVDVGSLNGTYVNREPRNAQVMQTGDEIQIGKFRLVFLAGPAELEHHHHHH”, the protein production is reported as “not failed”.

In the case of “MWKRTITVPAPYDFAHVLDRLSLDPLMAVDVERQRITVPLHLDGLKIPVVIESIGTKEAPRFVVLAPHSNRQEDILERVSHLFQWQTPLAPVYDHFRTTELAPLFARYEGLPLVLDFDLYFCLMKCFIHQQLHLKVGYRLTERFVKTFGEERDGVWFYPRPEDIAARSYDDLRALQLSRRKAEYIVDVSRLIADGTLRLDDLEQMEDGEVMERLTAIRGIGPWTVQNFLLFGLGRPNVFPPADIGLQRAVERLFQLPKRPTASELALLGERWKPYTSYAALYLWRSIE”, the protein production is reported as “failed”.

In the case of “MDCKKFIQMVEEKKRRVLEKQEAPLKWEQKLEAAANAKADTETKVKRSKGPKRKQRAASESSSESDSSSEVRRKSRRSHNKHRRHAHSDSDDSDRRKEKKSRRQKRRSLSPSDDSTGDYESGSEDELRMKIKHHRRHKWHSSRKTCDDDSTEDVRRKHLKHHRRSEVVTSSDSEEESGRRRRGKYHRHNRGSASSSGSEEDSGKSMKRRQHKRHRLAESSSEEDGAMRRTRHHKHGRDSASESDGRR”, the protein production is reported as “failed”.

In the case of “MSQANANFLDNSKVSANKTAESGQLKEFRTPPHNLAIEQAVLAALMTVAESFEQVNDLLKENDFYATRHKYIFRAIEKLAQENSPYDAVLVNDWLLKQNLLDAIGGEEYLMQLMADSPSSFYNLETYASKIKEFSTLRSMIKVSSDILQNAYDTKGRPVSEILDLAETSIFSLAEQHNNNKKDAGPKSISSVTADVISKLDELSKLDGNITGLTTGFLELDNKTYGMQSGDMIIVAARPSMGKTTFAMNLVESVLFNCNLPALVFSMEMPADSIAMRLISSYGKVHQGHLRSGKLDGDEWSKVTGTILQLQEKHLYIDDSSALPPTELRARARRIAKQHGGKLGCIMIDYLQLMKVPGMGDNRVGEIGEISRSLKALAKEMDCPVIALSQLNRSLENRPNKRPVMSDLRESGAIEQDADLIMFIYRDEVYNKESKEAGTAEIIIGKQRNGPIGTVRLAFEGQYTRFSNLSPEYYSQYDDEE”, the protein production is reported as “failed”.

With “MPGKGEGSPVGIAILGYGTVGSQVLRLLTENHNDFQHRAGGPLEIKGVAASSVEKHRGSLADQLGLLTDDARSLIARDDVDIVVEVIGGIDYPRELILEALHSGKSVVTANKALVAAHSEELAAAADEAGVDLYFEAAVAAAIPVLGPLRRSLAGDQIQSVAGIVNGTTNFILDAMDSTGASYDDMLAEATRLGYAEADPTADVEGHDAASKAAILASLAFHTRVTYADVYCEGISKITADDINAAKEAGFTIKLLAICERLNVDGVEKVSARVHPTLVPRNHPLASVDKSFNAIFVEAEAAGRLMFYGNGAGGNPTASAVLGDIVGAARNKVFGGRAPGESTYADLPIAPFGEVPTRFHIDMEVEDRVGVLADLAKTFSNHGISLRTVRQAEKDGHARLIVVTHTAKESELEATVEQIKNSDSVKKINSVIRLAGLEHHHHHH” the protein production was “not failed”.

For “MGHHHHHHSHMAGTVVLDDVELREAQRDYLDFLDDEEDQGIYQSKVRELISDNQYRLIVNVNDLRRKNEKRANRLLNNAFEELVAFQRALKDFVASIDATYAKQYEEFYVGLEGSFGSKHVSPRTLTSCFLSCVVCVEGIVTKCSLVRPKVVRSVHYCPATKKTIERRYSDLTTLVAFPSSSVYPTKDEENNPLETEYGLSVYKDHQTITIQEMPEKAPAGQLPRSVDVILDDDLVDKAKPGDRVQVVGTYRCLPGKKGGYTSGTFRTVLIACNVKQMS”, the protein production was “not failed”.

For “MPSSSLDISSALMIISLCALIDILSPGVLTVTAYLLLTQPNQLSSRLFVFLFITQLGYFITGLLLYFGGNSLLKRIEQLSQFDFINWFYILLGAVLVLISFSKPKETAKKRLISFIPKNTTIKGMIILGIIVFLIEFVTALPYFYSIFLMNHQTIETTPAILIIIGYNLVMVLPSLLLLGVNIIFKERLQQFLIKIRSKLNEAPISSLLVATGVIGAVFFNIGLRGILN”, the protein production was “failed”.

Reference: a protein production outcome set (Wang et al. 2014)
